# Experimental data published in paper PMC2909962, “Integrin αvβ5 is a primary receptor for adenovirus in CAR-negative cells” (Virology Journal, 2010).
# B1: Integrin αvβ5 (receptor)
# chain 1: FNLDVDSPAEYSGPEGSYFGFAVDFFVPSASSRMFLLVGAPKANTTQPGIVEGGQVLKCDWSSTRRCQPIEFDATGNRDYAKDDPLEFKSHQWFGASVRSKQDKILACAPLYHWRTEMKQEREPVGTCFLQDGTKTVEYAPCRSQDIDADGQGFCQGGFSIDFTKADRVLLGGPGSFYWQGQLISDQVAEIVSKYDPNVYSIKYNNQLATRTAQAIFDDSYLGYSVAVGDFNGDGIDDFVSGVPRAARTLGMVYIYDGKNMSSLYNFTGEQMAAYFGFSVAATDINGDDYADVFIGAPLFMDRGSDGKLQEVGQVSVSLQRASGDFQTTKLNGFEVFARFGSAIAPLGDLDQDGFNDIAIAAPYGGEDKKGIVYIFNGRSTGLNAVPSQILEGQWAARSMPPSFGYSMKGATDIDKNGYPDLIVGAFGVDRAILYRARPVITVNAGLEVYPSILNQDNKTCSLPGTALKVSCFNVRFCLKADGKGVLPRKLNFQVELLLDKLKQKGAIRRALFLYSRSPSHSKNMTISRGGLMQCEELIAYLRDESEFRDKLTPITIFMEYRLDYRTAADTTGLQPILNQFTPANISRQAHILLDCGEDNVCKPKLEVSVDSDQKKIYIGDDNPLTLIVKAQNQGEGAYEAELIVSIPLQADFIGVVRNNEALARLSCAFKTENQTRQVVCDLGNPMKAGTQLLAGLRFSVHQQSEMDTSVKFDLQIQSSNLFDKVSPVVSHKVDLAVLAAVEIRGVSSPDHVFLPIPNWEHKENPETEEDVGPVVQHIYELRNNGPSSFSKAMLHLQWPYKYNNNTLLYILHYDIDGPMNCTSDMEINPLRIKISSLQTTEKNDTVAGQGERDHLITKRDLALSEGDIHTLGCGVAQCLKIVCQVGRLDRGKSAILYVKSLLWTETFMNKENQNHSYSLKSSASFNVIEFPYKNLPIEDITNSTLVTTNVTWGIQPAPMPVPVWVIILAVLAGLLLLAVLVFVMYRMGFFKRVRPPQEEQEREQLQPHENGEGNSET
# chain 2: GLNICTSGSATSCEECLLIHPKCAWCSKEDFGSPRSITSRCDLRANLVKNGCGGEIESPASSFHVLRSLPLSSKGSGSAGWDVIQMTPQEIAVNLRPGDKTTFQLQVRQVEDYPVDLYYLMDLSLSMKDDLDNIRSLGTKLAEEMRKLTSNFRLGFGSFVDKDISPFSYTAPRYQTNPCIGYKLFPNCVPSFGFRHLLPLTDRVDSFNEEVRKQRVSRNRDAPEGGFDAVLQAAVCKEKIGWRKDALHLLVFTTDDVPHIALDGKLGGLVQPHDGQCHLNEANEYTASNQMDYPSLALLGEKLAENNINLIFAVTKNHYMLYKNFTALIPGTTVEILDGDSKNIIQLIINAYNSIRSKVELSVWDQPEDLNLFFTATCQDGVSYPGQRKCEGLKIGDTASFEVSLEARSCPSRHTEHVFALRPVGFRDSLEVGVTYNCTCGCSVGLEPNSARCNGSGTYVCGLCECSPGYLGTRCECQDGENQSVYQNLCREAEGKPLCSGRGDCSCNQCSCFESEFGKIYGPFCECDNFSCARNKGVLCSGHGECHCGECKCHAGYIGDNCNCSTDISTCRGRDGQICSERGHCLCGQCQCTEPGAFGEMCEKCPTCPDACSTKRDCVECLLLHSGKPDNQTCHSLCRDEVITWVDTIVKDDQEAVLCFYKTAKDCVMMFTYVELPSGKSNLTVLREPECGNTPNAMTILLAVVGSILLVGLALLAIWKLLVTIHDRREFAKFQSERSRARYEMASNPLYRKPISTHTVDFTFNKFNKSYNGTVD
# notes: integrin alpha-V subunit, human, endogenous on the surface of MDA-MB-435 and MCF7 cells; integrin beta-5 subunit, human, endogenous on the surface of MDA-MB-435 and MCF7 cells; no isolated integrin was used; source: endogenous, on MDA-MB-435 and MCF7 cells
# Target: Adenovirus Serotype 5, replication incompetent, E1A deleted, expressing GFP (Ad5-GFP), whole virus (human adenovirus serotype 5, UniProt P12538 1-571); P11818 1-581; P04133 1-952, Whole virion. Only the three major capsid proteins named in the paper are given, as wild type: penton base (5 at each of 12 vertices), fiber (trimer at each vertex), hexon (240 trimers; the paper prin)
# Assay: ELISA; cell-based: MDA-MB-435 cells in 96-well poly-D-lysine plates, incubated with whole Ad5 at varying concentrations for 18 hrs at 4°C, washed, fixed; bound virus detected with polyclonal rabbit anti-Ad5 and an ELISA amplification system; fit to the Langmuir binding isotherm
# Conditions: one partner purified
binder,measurement,value
B1,Kd,140 pM
